Measured values reported in US20250340659A1 (PETMEDIX, published 2025).
Changes are numbered by the printed parent chain.

What was measured:
[1] = biological target: T1, canine OX40L, full length membrane form, expressed on HEK293 cells (canine); experiment: flow cytometry
T1 construct: also called OX40L expressing HEK; HEK OX40L cells
T1 chain: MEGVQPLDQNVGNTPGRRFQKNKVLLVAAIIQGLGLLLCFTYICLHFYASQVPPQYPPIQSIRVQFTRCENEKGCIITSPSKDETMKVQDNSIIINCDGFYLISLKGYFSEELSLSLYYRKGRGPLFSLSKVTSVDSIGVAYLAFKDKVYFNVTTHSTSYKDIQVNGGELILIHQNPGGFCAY
Experimental: (§1) CHO supernatants diluted in FACS buffer (PBS containing 3% FBS) at 1, 5 or 10 μg/ml were used to screen for their binding capacity to canine OX40L using a cell-based assay. In brief, HEK293 or MEF cells (or any other commonly used cell lines) expressing canine OX40L at the cell surface are incubated with 100 μll of FACS buffer containing the candidate antibody for 30′ on ice. Cells are washed with 150 μl FACS buffer followed by centrifugation at 300 g for 3 min. The cell pellet is resuspended in FACS buffer containing a 1:1000 dilution of a fluorescently labelled secondary antibody recognising the canine Fc region of the test antibody for 30 min in the dark, followed by washing with 150 μl FACS buffer. Cells are resuspended in FACS buffer and flow cytometry performed using either a […] cytometer, followed by data analysis using FlowJo (FIG. 6 and Table 4).

[2] = biological target: T1, canine OX40L, full length membrane …; experiment: flow cytometry, OX40L HEK minus WT HEK
Experimental: as §1

[3] = biological target: T1, canine OX40L, full length membrane …; experiment: cell-based or functional assay
[4] = biological target: T2, recombinant canine OX40L ECD-TNCc-HIS protein (canine); experiment: SPR Koff (kd1)
T2 construct: also called Trimeric OX40L probe (HIS tag); trimeric canine OX40L
T2 chain: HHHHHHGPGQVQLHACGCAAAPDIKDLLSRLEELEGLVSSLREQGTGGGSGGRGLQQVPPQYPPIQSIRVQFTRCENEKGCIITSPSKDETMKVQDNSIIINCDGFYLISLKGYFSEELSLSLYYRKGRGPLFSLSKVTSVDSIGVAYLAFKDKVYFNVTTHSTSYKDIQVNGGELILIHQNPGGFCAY
Experimental: (§2) Affinity (Kd) of OX40L antibodies is measured by SPR, using a recombinant canine OX40L ECD-TNCc-HIS protein (Seq ID 811) as the capturing agent (FIG. 5B).
(§3) Functional affinity is determined using a Biakore 8K (Cytiva). in brief, purified OX40L ECD-TNCc-HIS protein is covalently bound at low density to the surface of a CM5 sensor chip (Cytiva) by amine coupling, using the manufacturer's recommended protocol. Candidate antibodies are subsequently passed across the chip surface at a range of concentrations and affinity determined using the dedicated software (Biacore Insight Evaluation Software). Curves were fitted using a bivalent analyte binding model.

[5] = biological target: T2, recombinant canine OX40L ECD-TNCc-HIS …; experiment: SPR KD1, bivalent analyte model
Experimental: as §2, §3

[6] = biological target: T2, recombinant canine OX40L ECD-TNCc-HIS …; experiment: SPR Koff (kd2)
Experimental: as §2, §3

B1: PMX292 (antibody, V domains shown)
VH: AVQLVESGGDLVRPGGSLRLSCVASGFTFSNFDMYWVRQAPGRGLQWVATISYDGFNTYSTDTVRGRFTISRDNARNTVYLQMNSLRVEDTAVFYCTARRFGLGYWGQGTLVTVSS
VL: DIFMAQTPPSLSVSPRETASISCKASQSLLHSDGNTYLDWYLQKPGQSPQLLIYLVSNRFPGVSDRFSGSGSGTGFTLRISRVEASDTGVYYCGQGTQLPYTFSQGTKLEIK
[1]
  GEO mean OX40L expressing HEK: 471000
[2]
  GEO mean difference: 467000
[3]
  % Signal Inhibition Average: 71.6%
  % Signal Inhibition Rep1: 97.5%
  % Signal Inhibition Rep2: 54.4%
  % Signal Inhibition Rep3: 62.9%

B2: PMX049 (antibody, V domains shown)
VH: EVQLVESGGDLVKPGGSLRLSCVASGFTFNNYEMYWVRQAPGKGLEWVARIYESGSTTFSAEAVTGRFTISRDNAKNMVYLQMNSLRAEDTAVYYCASASSSSWRFDYWGQGTLVTVSS
VL: SYVLTQLPSVSVTLGQTARITCGGDSIGRKNVCWFQQRLGQAPELIIYDDRSRPSGIPERFSGANSGNTATLTISGALAEDEADYYCQVWDSSTGVFGGGTHLTVL
notes: also called PMX49
[1]
  GEO mean OX40L expressing HEK: 3.5e+06
[2]
  GEO mean difference: 3.48e+06
[3]
  % Signal Inhibition Average: 84.7%
  % Signal Inhibition Rep1: 84.6%
  % Signal Inhibition Rep2: 79.3%
  % Signal Inhibition Rep3: 90.1%
[4]
  koff: 0.00211 s⁻¹
[5]
  Kd: 15.6 nM
[6]
  koff: 22 s⁻¹

B3: PMX037 (antibody, V domains shown)
VH: B2 VH with V5L, N30S, I51F, F59Y, T65P, V79A
VL: B2 VL with R29S, C33Y, R38K, E44V
notes: also called PMX37
[1]
  GEO mean OX40L expressing HEK: 1.42e+06
[2]
  GEO mean difference: 1.39e+06
[3]
  % Signal Inhibition Average: 78.4%
  % Signal Inhibition Rep1: 85.7%
  % Signal Inhibition Rep2: 79.8%
  % Signal Inhibition Rep3: 69.8%
[4]
  koff: 0.0183 s⁻¹
[5]
  Kd: 308 nM
[6]
  koff: 0.000862 s⁻¹

B4: PMX048 (antibody, V domains shown)
VH: B2 VH with S56T, F59Y, V64D, Y80F, S103T
VL: B2 VL with C33Y, R38K, E44V
notes: also called PMX48
[1]
  GEO mean OX40L expressing HEK: 3.92e+06
[2]
  GEO mean difference: 3.9e+06
[3]
  % Signal Inhibition Average: 69.9%
  % Signal Inhibition Rep1: 57.5%
  % Signal Inhibition Rep2: 69.3%
  % Signal Inhibition Rep3: 82.9%
[4]
  koff: 0.00485 s⁻¹
[5]
  Kd: 12.2 nM
[6]
  koff: 21 s⁻¹

B5: PMX291 (antibody, V domains shown)
VH: EVQLVESGGDLLKPGGSLRLSCVASGFPFRNYDMTWVRQAPGKGLQWVAAIHYDGSNTYYTDAVKGRFTISRDNARNTVFLQMNSLRAEDTAVYYCAKKFNNYRPFDYWGQGTLVTVSS
VL: DIVMTQTPPSLSVSPRETPSISCKASQSLLRSDGNTYLEWYLQKPGQSPQLLIYLVSNRFTGVSDRFSGSGSGTDFTLRISRVEANDAGVYYCGQGTQLPWTFGAGTKVELK
[1]
  GEO mean OX40L expressing HEK: 463000
[2]
  GEO mean difference: 459000
[3]
  % Signal Inhibition Average: 73.3%
  % Signal Inhibition Rep1: 95.9%
  % Signal Inhibition Rep2: 70.3%
  % Signal Inhibition Rep3: 53.6%

B6: PMX098 (antibody, V domains shown)
VH: EVQLVESGGDLVKPGGSLRLSCVASGFTFNTYHMNWVRQAPGKGLHWVAFINSGGSGTSYADTVKGRFTISRDYAKNTLYLQMNSLRAEDTAVYYCASGSIWTHFDYWGQGTLVTVSS
VL: SYVLTQLPSVSLTLRQTAHITCGGDIIGSKSVYWYQQKLGQAPVLIIYRDNNRPTGIPERFSGASSGNTATLTISGALAEDEADYYCQVWDSSTQAMFGGGTHLTVL
[3]
  % Signal Inhibition Average: 45%
  % Signal Inhibition Rep1: 40.4%
  % Signal Inhibition Rep2: 55%
  % Signal Inhibition Rep3: 39.8%
[4]
  koff: 0.00147 s⁻¹
[5]
  Kd: 14.1 nM
[6]
  koff: 1.03 s⁻¹

B7: PMX110 (antibody, V domains shown)
VH: B6 VH with K13R, N30S, T31S, N35S, H46Q, G57S, S59T, T63V, K65R, W102L
VL: B6 VL with Y2F, L12V, H19R, I26S, I27V, N51S, S92N, T94N, Q95K
[1]
  GEO mean OX40L expressing HEK: 31900
[2]
  GEO mean difference: 28400
[3]
  % Signal Inhibition Average: 37.4%
  % Signal Inhibition Rep1: 55.2%
  % Signal Inhibition Rep2: 43.1%
  % Signal Inhibition Rep3: 13.7%

B8: PMX104 (antibody, V domains shown)
VH: EVQLVESGGDLVRPGGSLRLSCVASGFTFSNYHMSWVRQAPGKGLQWVAFINSGGTSTTYADAVRGRFTTSRDYAKNTLYLQMNSLRAEDTAVYYCTSGSIWTHFDYWGQGTLVTVSS
VL: B6 VL with Y2F, L12V, H19R, Y35F, V44I, N51D, T73I, D84H, T94S, Q95K
[3]
  % Signal Inhibition Average: 31%
  % Signal Inhibition Rep1: 31%
  % Signal Inhibition Rep2: 28.1%
  % Signal Inhibition Rep3: 33.9%
[4]
  koff: 0.00174 s⁻¹
[5]
  Kd: 17.6 nM
[6]
  koff: 1.23 s⁻¹

B9: PMX109 (antibody, V domains shown)
VH: B8 VH with S30T, T56S, A61T, A63V, T70I, R87T, T97A, Y107H
VL: B6 VL with Y2F, L12V, H19R, I26S, I27V, N51S, S92N, T94N, Q95K, M97I
[1]
  GEO mean OX40L expressing HEK: 633000
[2]
  GEO mean difference: 629000
[3]
  % Signal Inhibition Average: 53.3%
  % Signal Inhibition Rep1: 67.9%
  % Signal Inhibition Rep2: 69.5%
  % Signal Inhibition Rep3: 22.5%

B10: PMX107 (antibody, V domains shown)
VH: B8 VH with E1A, N31S, S35N, T56S, A63V, T70I, Y80F, T97A, S98I, G99V
VL: B6 VL with Y2F, L12V, H19R, S31N, K38R, I47L, N51T, S92N, T94N, Q95K
[1]
  GEO mean OX40L expressing HEK: 58800
[2]
  GEO mean difference: 55200
[3]
  % Signal Inhibition Average: -5.31%
  % Signal Inhibition Rep1: 7.14%
  % Signal Inhibition Rep2: 20.9%
  % Signal Inhibition Rep3: -44%

B11: PMX111 (antibody, V domains shown)
VH: B8 VH with N31S, S35N, G55A, T56S, T58A, A63V, T70I, T97A, Y107F
VL: B6 VL with Y2F, L12V, H19R, I26S, I27V, N51S, S92N, T94N, Q95K
[1]
  GEO mean OX40L expressing HEK: 647000
[2]
  GEO mean difference: 643000
[3]
  % Signal Inhibition Average: 38.9%
  % Signal Inhibition Rep1: 44.2%
  % Signal Inhibition Rep2: 37.4%
  % Signal Inhibition Rep3: 35.2%

B12: PMX097 (antibody, V domains shown)
VH: B8 VH with F27I, N31S, F50L, T56S, T58I, A63V, T70I, T97A, L113R
VL: B6 VL with Y2F, L12V, H19R, S31N, K38R, N51S, S92N, T94N, Q95K
notes: also called PMX97
[3]
  % Signal Inhibition Average: 60.8%
  % Signal Inhibition Rep1: 56.1%
  % Signal Inhibition Rep2: 73.1%
  % Signal Inhibition Rep3: 53.2%
[4]
  koff: 7.16e-05 s⁻¹
[5]
  Kd: 0.492 nM
[6]
  koff: 0.744 s⁻¹

B13: PMX108 (antibody, V domains shown)
VH: B8 VH with S30T, T56S, A61T, A63V, T70I, R87T, T97A, S100A, Y107H
VL: B6 VL with Y2F, L12V, H19R, I26S, I27V, N51S, S92N, T94N, Q95K, M97I
[1]
  GEO mean OX40L expressing HEK: 611000
[2]
  GEO mean difference: 607000
[3]
  % Signal Inhibition Average: 82.2%
  % Signal Inhibition Rep1: 95.6%
  % Signal Inhibition Rep2: 89.8%
  % Signal Inhibition Rep3: 61.3%

B14: PMX025 (antibody, V domains shown)
VH: EVHLVESGGDLVKPGGSLRLSCVASGFTFSSYHMSWVRQAPGKGLQWVAFINAGEISTNYADAVKGRFTISRDNAKNILYLQMNSLRAEDTAVYYCASGHIWIRPFDYWGQGTLVTVSS
VL: SYVLTQLPSMSVTLRQTARITCEGDSIGRKRVNWYQQKLGQVPVLIIYDDDSRPSGIPERFSGANSGNTATLTISGALAEDEAEYYCQVWDSSNNWVFGEGTQLTVL
notes: also called PMX25
[1]
  GEO mean OX40L expressing HEK: 2.83e+06
[2]
  GEO mean difference: 2.81e+06
[3]
  % Signal Inhibition Average: 72.6%
  % Signal Inhibition Rep1: 87.9%
  % Signal Inhibition Rep2: 61.7%
  % Signal Inhibition Rep3: 68.3%
[4]
  koff: 0.0129 s⁻¹
[5]
  Kd: 195 nM
[6]
  koff: 0.00169 s⁻¹

B15: PMX027 (antibody, V domains shown)
VH: B14 VH with S31T, L79F, S98T
VL: B14 VL with D25N
notes: also called PMX27
[1]
  GEO mean OX40L expressing HEK: 1.65e+06
[2]
  GEO mean difference: 1.62e+06
[3]
  % Signal Inhibition Average: 80.4%
  % Signal Inhibition Rep1: 72.2%
  % Signal Inhibition Rep2: 83.5%
  % Signal Inhibition Rep3: 85.5%
[4]
  koff: 0.0161 s⁻¹
[5]
  Kd: 316 nM
[6]
  koff: 0.000505 s⁻¹
